Where a chain is given by its changes, count along the chain named.
B1: 127A2B9 (antibody, V domains shown)
VH: EVQLQESGPSLVKPSQTLSLTCSVTGDSITSGYWNWIRKLPGNKLEYMGYISYSGSTYYNPSLKSRISITRDTSKNQYYLQLNSVTTEDTATYYCARIYYDYDGYFDVWGAGTTVTVSS
VL: DIVMTQAAPSVPVTPGESVSISCRSSKSLLHSNGNTFLYWFLQRPGQSPQLLIYRMSNLASGVPDRFSGSGSGTAFTLRISRVEAEDVGVYYCMQHLEYPYTFGGGTKLEIK
notes: Tested as chimeric antibody
B2: 47G1B10 (antibody, V domains shown)
VH: QVQLKQSGPGLVQPSQSLSITCTVSGFSLTTYGVHWVRQSPGKGLEWLGVIWTGGTTDYNAAFISRLSISKDNSKSQVFFKMNSLQANDTAIYYCARGPSSYWGQGTLVTVSA
VL: DIVMTQSQKFMSTSVGDRVSVTCKASQNVDTNVVWYQQKPGQSPKALIHSASYRYSGVPDRFTGSGSGTDFTLTISNVQSEDLAEYFCQQYNNYPWTFGGGTKLEIK
notes: Tested as chimeric antibody
B3: 39D10B2 (antibody, V domains shown)
VH: B2 VH with I92M
VL: B2 VL
notes: Tested as chimeric antibody
B4: 109C9D4 (antibody, V domains shown)
VH: EVKLVESGGGLVQPGGSRKLSCAASGFTFSDYGMAWVRQAPGKGPEWVTFISNLAYSIYYADTVTGRFTISRENAKNTLYLEMSSLRSEDTAMYYCARVEENGNYFDYWGQGTTLTVSS
VL: DIQMTQTTSSLSASLGDRVTIRCRASQDIGIYLHWYQQKPDGTVKLLIYYTSRLHSGVPSRFSGSRSGTDYSLTIGNLEQEDIATYFCLQGNTIPPTFGGGTKLEIK
notes: Tested as chimeric antibody
B5: 290F10G10.p1.Z4 (antibody, V domains shown)
VH: EVQLVQSGAEVKKPGASVKVSCKASGYTFTSYWIHWVRQAPGQGLEWMGTIYPGDADTRSTQKFKDRVTVTADKSTSTVYMELSSLRSEDTAVYYCARSLIHDDYDKYYFDYWGQGTTVTVSS
VL: DIQMTQSPSSLSASVGDRVTITCKARQDINKYIAWYQQKPGKAPKLLIYYTSILQPGVPSRFSGSGSGRDYTFTISSLQPEDIATYYCLQYDYFFTFGGGTKVEIK
B6: 290F10G10.p1.Z10 (antibody, V domains shown)
VH: B5 VH with A97T
VL: B5 VL
B7: 290F10G10.p1.Z16 (antibody, V domains shown)
VH: B5 VH with V2I, Q39E, M48I, R67K, V68A, A97T
VL: B5 VL
B8: 290F10G10.p1.Z11 (antibody, V domains shown)
VH: B5 VH with A97T
VL: B5 VL with Y49H, V58I
B9: 290F10G10.p1.Z12 (antibody, V domains shown)
VH: B5 VH with A97T
VL: B5 VL with Q38H, A43G, Y49H, V58I
B10: 290F10G10.p1.Z6 (antibody, V domains shown)
VH: B5 VH
VL: B5 VL with Q38H, A43G, Y49H, V58I
B11: 290F10G10.p1.Z15 (antibody, V domains shown)
VH: B5 VH with M48I, R67K, V68A, A97T
VL: B5 VL with Q38H, A43G, Y49H, V58I
B12: 290F10G10.p1.Z7 (antibody, V domains shown)
VH: B5 VH with M48I, R67K, V68A
VL: B5 VL
B13: 290F10G10.p1.Z13 (antibody, V domains shown)
VH: B5 VH with M48I, R67K, V68A, A97T
VL: B5 VL
B14: 290F10G10.p1.Z8 (antibody, V domains shown)
VH: B5 VH with M48I, R67K, V68A
VL: B5 VL with Y49H, V58I
B15: 290F10G10.p1.Z14 (antibody, V domains shown)
VH: B5 VH with M48I, R67K, V68A, A97T
VL: B5 VL with Y49H, V58I
B16: 290F10G10.p1.Z17 (antibody, V domains shown)
VH: B5 VH with V2I, Q39E, M48I, R67K, V68A, A97T
VL: B5 VL with Y49H, V58I
B17: 290F10G10.p1.Z9 (antibody, V domains shown)
VH: B5 VH with M48I, R67K, V68A
VL: B5 VL with Q38H, A43G, Y49H, V58I
B18: 290F10G10.p1.Z18 (antibody, V domains shown)
VH: B5 VH with V2I, Q39E, M48I, R67K, V68A, A97T
VL: B5 VL with Q38H, A43G, Y49H, V58I
B19: 59C12C8 (antibody, V domains shown)
VH: EVQLQQSGAELVRSGASVKLSCTASDFNIEDYYIHWVKQRPEQGLEWIGWIDPENGDTEYAPKFQGKATMTADTSSNTAYLQLSSLTSEDTAVYYCPHGGGFRVFDYWGQGTTLTVSS
VL: DVLMTQTPLSLPVSLGDQASISCRSSQRIVHSNGNTYLEWYLQKPGQSPKLLIYKVSNRFSGVPDRFSGSGSGTDFTLKISRVEAEDLGVYYCFQGSHVPWTFGGGTKLEIK
notes: Tested as chimeric antibody

Columns and labels:
human LIV-1 [1] = molecular target: T1, human LIV-1 (human, UniProt Q13433 29-755); assay: cell-based or functional assay
T1 sequence (looked up): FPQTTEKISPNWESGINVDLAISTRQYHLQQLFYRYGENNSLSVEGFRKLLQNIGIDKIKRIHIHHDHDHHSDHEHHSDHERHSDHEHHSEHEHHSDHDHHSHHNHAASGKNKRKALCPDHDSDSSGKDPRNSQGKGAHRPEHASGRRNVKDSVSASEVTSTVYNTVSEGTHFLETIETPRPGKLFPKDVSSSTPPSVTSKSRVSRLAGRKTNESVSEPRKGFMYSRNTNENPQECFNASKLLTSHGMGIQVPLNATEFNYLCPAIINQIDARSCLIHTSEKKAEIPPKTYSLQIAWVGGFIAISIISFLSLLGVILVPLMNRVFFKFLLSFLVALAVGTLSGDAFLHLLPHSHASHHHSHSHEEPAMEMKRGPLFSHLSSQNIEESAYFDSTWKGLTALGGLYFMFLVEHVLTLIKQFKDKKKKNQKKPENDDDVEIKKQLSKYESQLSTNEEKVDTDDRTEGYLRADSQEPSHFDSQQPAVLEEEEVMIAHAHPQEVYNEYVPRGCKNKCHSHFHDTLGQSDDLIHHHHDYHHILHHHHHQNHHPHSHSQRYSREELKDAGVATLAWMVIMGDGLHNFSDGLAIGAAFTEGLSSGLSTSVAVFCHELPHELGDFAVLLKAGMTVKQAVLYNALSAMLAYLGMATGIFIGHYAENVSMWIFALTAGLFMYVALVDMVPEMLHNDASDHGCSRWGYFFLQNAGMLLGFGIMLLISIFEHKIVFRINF

human LIV-1 [2] = molecular target: T1, human LIV-1; assay: FACS, HEK293/H_LIV-1 cells
Procedure: (§1) In this example, cell based binding of chimeric Abs on human and cyno LIV-1 over-expressing HEK 293 cells were assessed using flow cytometry.
(§2) Briefly, cells were incubated with chimeric Abs (from 100 nM, 5 folds dilution, 8 points). After incubation at 4° C. for 60 minutes, the cells were washed with 2% FBS/PBS buffer twice, then stained with fluorescent conjugated secondary antibody at 4° C. for 30 minutes. After that the cells were washed twice and resuspended in 80 μL of 2% FBS/PBS buffer. Fluorescent signal of binding was detected using Agilent. The EC50 was calculated using the GraphPad Software (LaJolla, CA).

human LIV-1 [3] = molecular target: T1, human LIV-1; assay: cell-based or functional assay; remark: listed apart in the source
cynomolgus LIV-1 [4] = molecular target: T2, cynomolgus LIV-1 (cynomolgus, UniProt A0A2K5WH46 30-741); assay: FACS, HEK293/Cyno_LIV-1 cells
Procedure: as §1, §2

human LIV-1 [5] = molecular target: T1, human LIV-1; assay: cell-based or functional assay; remark: listed apart in the source
cynomolgus LIV-1 [6] = molecular target: T2, cynomolgus LIV-1; assay: FACS, cyno LIV-1 cells
Target sequence in this assay (A0A2K5WH46 entry or part of it): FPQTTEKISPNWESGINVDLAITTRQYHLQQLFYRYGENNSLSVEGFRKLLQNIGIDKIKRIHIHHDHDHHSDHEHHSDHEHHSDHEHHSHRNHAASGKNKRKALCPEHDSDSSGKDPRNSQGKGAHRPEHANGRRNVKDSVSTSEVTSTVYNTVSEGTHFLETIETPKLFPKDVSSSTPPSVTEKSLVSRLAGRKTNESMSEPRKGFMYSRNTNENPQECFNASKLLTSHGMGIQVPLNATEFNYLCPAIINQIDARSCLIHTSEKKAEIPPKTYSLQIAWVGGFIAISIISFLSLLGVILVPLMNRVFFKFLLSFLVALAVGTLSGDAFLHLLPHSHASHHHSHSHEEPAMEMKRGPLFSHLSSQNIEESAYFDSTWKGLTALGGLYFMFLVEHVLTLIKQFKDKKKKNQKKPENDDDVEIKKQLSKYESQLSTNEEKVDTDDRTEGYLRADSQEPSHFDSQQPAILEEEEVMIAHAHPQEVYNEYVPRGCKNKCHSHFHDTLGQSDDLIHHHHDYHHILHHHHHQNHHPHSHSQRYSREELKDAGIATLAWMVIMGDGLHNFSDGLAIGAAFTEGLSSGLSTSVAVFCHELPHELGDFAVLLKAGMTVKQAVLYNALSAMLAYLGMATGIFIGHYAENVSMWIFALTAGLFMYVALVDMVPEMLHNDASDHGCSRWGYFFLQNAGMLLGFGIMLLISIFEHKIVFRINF

human LIV-1 [7] = molecular target: T1, human LIV-1; assay: FACS, human LIV-1 cells
Procedure: In this example, cell based binding of humanized antibodies (hu Abs) on human LIV-1-expressing cells were assessed using flow cytometry.
Cell based binding of hu-Abs on human LIV-1 expressing cells were assessed using flow cytometry. Briefly, the HEK293/H_LIV-1 cells were incubated with hu-Abs (from 100 nM, 6 folds dilution, 8 points). After incubation at 4° C. for 60 minutes, the cells were washed with FACS buffer twice, then stained with fluorescent conjugated secondary antibody at 4° C. for 30 minutes. After that the cells were washed twice and analyzed by flow cytometry.

Binder | Cell viability(%) (human LIV-1 [1]) | Cytotoxicity IC50 (human LIV-1 [1]) [nM] | EC50 (human LIV-1 [2]) [nM] | Top (MFI) (human LIV-1 [2]) | Internalization EC50 (human LIV-1 [3]) [nM] | Internalization Top (RFU) (human LIV-1 [3]) | EC50 (cynomolgus LIV-1 [4]) [nM] | Top (MFI) (cynomolgus LIV-1 [4]) | ADCC reporter EC50 (human LIV-1 [5]) [nM] | ADCC reporter Top (RFU) (human LIV-1 [5]) | EC50 (cynomolgus LIV-1 [6]) [nM] | Top (MFI) (cynomolgus LIV-1 [6]) | EC50 (human LIV-1 [7]) [nM] | Top (MFI) (human LIV-1 [7])
B1 | 17.8 | 2.25 | 4.03 | 34600 | 51.8 | 558000 | 3.92 | 21700 |  |  |  |  |  | 
B2 | 17.7 | 1.53 | 0.37 | 60900 | 10.1 | 178000 | 0.3 | 36700 | 0.3 | 191000 |  |  |  | 
B3 | 16.2 | 1.54 | 0.24 | 61800 | 16.9 | 171000 | 0.21 | 37300 | 0.2 | 151000 |  |  |  | 
B4 | 18.5 | 0.69 | 0.43 | 7340 | 4.2 | 554000 | 1.33 | 2340 | 4.1 | 101000 |  |  |  | 
B5 |  |  |  |  |  |  |  |  |  |  | 0.34 | 7140 | 0.24 | 7790
B6 |  |  |  |  |  |  |  |  |  |  | 0.69 | 6740 | 0.49 | 7290
B7 |  |  |  |  |  |  |  |  |  |  | 0.61 | 6920 | 0.43 | 7440
B8 |  |  |  |  |  |  |  |  |  |  | 0.32 | 7410 | 0.25 | 7820
B9 |  |  |  |  |  |  |  |  |  |  | 0.38 | 7510 | 0.26 | 7920
B10 |  |  |  |  |  |  |  |  |  |  | 0.46 | 6890 | 0.35 | 7420
B11 |  |  |  |  |  |  |  |  |  |  | 0.36 | 7210 | 0.27 | 7550
B12 |  |  |  |  |  |  |  |  |  |  | 0.37 | 7150 | 0.28 | 7680
B13 |  |  |  |  |  |  |  |  |  |  | 0.46 | 7180 | 0.32 | 7630
B14 |  |  |  |  |  |  |  |  |  |  | 0.36 | 7190 | 0.27 | 7540
B15 |  |  |  |  |  |  |  |  |  |  | 0.48 | 7220 | 0.3 | 7410
B16 |  |  |  |  |  |  |  |  |  |  | 0.51 | 6820 | 0.39 | 7520
B17 |  |  |  |  |  |  |  |  |  |  | 0.68 | 7630 | 0.51 | 7940
B18 |  |  |  |  |  |  |  |  |  |  | 0.56 | 7040 | 0.36 | 7430
B19 | 20.3 | 0.81 | 0.1 | 15100 | 3.9 | 408000 | 0.11 | 8060 | 1.1 | 36300 |  |  |  | 

Reference: patent US20240325555A1 (LANOVA MEDICINES, published 2024)
